For one molecule, binding result and Kd results are on record in patent US20130079286A1 (Pieris, published 2013).

The target of assay [1] is T1, Aβ40 hexamer VFFAED on SPOT membrane.
T1 construct: Called a minimal motif found with the hexameric and decameric peptides
T1 peptide: Ac-VFFAED-{SPOT membrane}
In words: SPOT membrane, hexameric and decameric peptides. The method, then: (§1) The SPOT membrane (Amino-PEG500-UC540 sheet, 100×150 mm, Intavis, Köln, Germany) for mapping the Aβ epitope of the Lcn2 muteins S1-A4 and US7 was prepared in an automated procedure as described by Frank ((2002) J. Immunol. Methods 262, 13-26) using a MultiPep RS instrument (Intavis, Köln, Germany) and activated amino acids from the same vendor. The Aβ40 amino acid sequence (SEQ ID NO: 29) was synthesized on the membrane in successive hexamers, decamers, and pentadecamers, each with a dislocation of 1 amino acid, thus covering the entire sequence. The C-termini of these peptides became covalently attached to the membrane whereas their N-termini were acetylated. Immobilized Strep-tag II served as a positive control for the detection method.
(§2) Prior to use, the membrane was washed once with ethanol, 3 times with PBS (4 mM KH₂PO₄, 16 mM Na₂HPO₄, 115 mM NaCl, pH 7.4), and blocked with 3% (w/v) BSA in PBS/T (PBS containing 0.1% (v/v) Tween 20) for 1 h. […]
(§3) Comparison of the membranes incubated with S1-A4 and wild-type Lcn2, respectively, yielded prominent spots that only occurred upon incubation of the membrane with S1-A4 and not with wild-type Lcn2. […] With the shorter hexameric and decameric peptide sequences binding of S1-A4 to the minimal motives VFFAED and FFAEDV was detected.

The target of assay [2] is T2, Aβ40 hexamer FFAEDV on SPOT membrane.
T2 construct: Called a minimal motif found with the hexameric and decameric peptides
T2 peptide: Ac-FFAEDV-{SPOT membrane}
In words: SPOT membrane, hexameric and decameric peptides. The method, then:
as §1, §2, §3

The target in assay [3] is T3, Aβ40 peptide, non-labeled (human).
T3 construct: Non-labeled synthetic peptide (W. M. Keck Laboratory); also called Abeta40; amyloid beta peptide
T3 sequence (peptide, as listed by the source): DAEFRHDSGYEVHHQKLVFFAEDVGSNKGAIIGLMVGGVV
In words: SPOT membrane of overlapping Aβ40 peptides, 50 nM mutein.

In assay [4] the target is T4, Trx-Aβ28 fusion protein (Escherichia coli (strain K12), UniProt P0AA25 1-76 = thioredoxin, Biotin-labelled through an NHS ester (2:1) in the capture and competitive ELISAs; unlabeled in the direct ELISA and as competitor.).
T4 construct: the entry may be a nucleic acid; also called TrxAbeta28H6
In words: capture ELISA: mutein captured, biotinylated Trx-Aβ28 titrated. The method, then:
FIG. 5 depicts the binding activity of the Lcn2 muteins H1-G1, S1-A4, and US7 in capture ELISAs with different biotinylated Aβ targets. StrepMAB-Immo at 10 μg/ml was immobilized on microtitre plates and employed for capturing of 1 JAM Lcn2 muteins via the Strep-tag H. In figures A to C the binding of the Lcn2 muteins S1-A4 and US7 to (A) biotinylated Aβ40, (B) biotinylated Trx-Aβ28, and (C) biotinylated MBP-Aβ40 are shown. Binding was detected by incubation with ExtrAvidin/AP and a subsequent chromogenic reaction with pNPP. Ovalbumin (Ova), thioredoxin (Trx), and maltose binding protein (MBP) were used as negative controls. Additionally, binding of wild-type (wt) lipocalin was tested. The data were fitted to a monovalent binding model.
For selective capturing of the Lcn2 muteins carrying the C-terminal Strep-tag II (Schmidt and Skerra (2007) Nat. Protoc. 2, 1528-1535), a 96-well MaxiSorp polystyrene microtitre plate (Nunc, Langenselbold, Germany) was coated with 10 μg/mL StrepMAB-Immo (IBA, Göttingen, Germany) in PBS over night at 4° C. and blocked with 3% (w/v) BSA in PBS/T at room temperature for 1 h. After 3 washing steps with PBS/T, 50 μL of a 1 μM solution of the purified Lcn2 muteins from Example 7 were applied to all wells for 1 h. After washing, 50 μL of a dilution series of the biotinylated targets Aβ40, MBP-Aβ40 or Trx-Aβ28 from Example 2 were added and incubated for 1 h whereby the biotinylated forms of Ova, MBP and Trx from Example 2 served as negative control proteins. The wells were washed again and bound conjugate was detected with 50 μL of ExtrAvidin/AP conjugate (Sigma-Aldrich, Steinheim, Germany) diluted 1:5000 in PBS/T for 1 h, followed by signal development in the presence of 100 μL 0.5 mg/mL p-nitrophenyl phosphate (AppliChem, Darmstadt, Germany) in 100 mM Tris/HCl, pH 8.8, 100 mM NaCl, 5 mM MgCl₂.

For assay [5], the target named is T4, Trx-Aβ28 fusion protein. The assay is described as follows: direct ELISA: Trx-Aβ28 coated, mutein titrated, detected via Strep-tag II. The method, then: The Aβ targets Trx-Aβ28 and MBP-Aβ40 as well as the control protein maltose binding protein (MBP) were immobilized at 2 μM in PBS over night. Bound Lcn2 muteins were detected via their Strep-tag II using Streptavidin/AP followed by a chromogenic reaction with pNPP. As a control, the binding of wild-type (wt) lipocalin was tested. The data were fitted to a monovalent binding model.
Alternatively, for a “direct” ELISA, 2 μM unlabeled Aβ40 target from Example 2 was adsorbed onto a 96-well MaxiSorp polystyrene microliter plate (Nunc, Langenselbold, Germany) and incubated with the purified Lcn2 mutein, which was detected via the Strep-tag II using a 1:1500 dilution of Streptavidin/AP conjugate (GE Healthcare UK Ltd, Buckinghamshire, UK). As a control, 2 μM MBP from Example 2 was adsorbed onto the ELISA plate. Absorption at 405 nm was measured in a SpectraMax 250 reader (Molecular Devices, Sunnyvale, USA).

B1: Lcn2 mutein S1-A4 (designed binder)
chain: QDSTSDLIPAPPLSKVPLQQNFQDNQFHGKWYVVGVAGNYTLREDKDPLKMYATIYELKEDKSYNVTSVGFRLKKCNYKIRTFVPGSQPGEFTLGIIKSQPGMTSYLVRVVSTNYNQHAMVFFKTVGQNREMFNITLYGRTKELTSELKENFIRFSKSLGLPENHIVFPVPIDQCIDG
For B1, the binding result in assay [1], in assay [2] and in assay [3] was “binds” throughout. Also, the Kd was determined as 1.9 nM in the assay with Trx-Aβ28 fusion protein [4] and 16.2 nM in the assay with Trx-Aβ28 fusion protein [5].
